From article PMC3896602 (mAbs, 2013)
Numbering of substitutions follows the chain as printed.

B1: human CXCL13 (natural protein)
chain: VLEVYYTSLRCRCVQESSVFIPRRFIDRIQILPRGNGCPRKEIIVWKKNKSIVCVDPQAEWIQRMMEVLRKRSSSTLPVPVFKRKIP
B2: anti-CXCL13 3B4 scFv-Fc fusion protein (Fc fusion, human)
VH: QVQLVQSGAEVKKPGSSVKVSCKASGGTFSSYAISWVRQAPGQGLEWMGGIIPIFGTANYAQKFQGRVTITADESTSTAYMELSSLRSEDTAVYYCAREPDYYDSSGYYPIDAFDIWGQGTTVTVSS
VL: QSALTQPASVSASPGQSITISCTGTSSDVGAYDWVSWYQQHPGKAPKLLIFDVNNRPSGVSHRFSGSKSGNTASLTISGLQAEDEADYYCSSYTRRDTYVFGTGTKVTVL
B3: anti-CXCL13 H08 scFv-Fc fusion protein (Fc fusion, human)
VH: B2 VH
VL: B2 VL with S91T, Y93V, R95V, R96E
B4: anti-CXCL13 E10 scFv-Fc fusion protein (Fc fusion, human)
VH: B2 VH
VL: B2 VL with S91A, Y93A, R95L, R96L
B5: anti-CXCL13 C07 scFv-Fc fusion protein (Fc fusion, human)
VH: B2 VH
VL: B2 VL with Y93P, R95F, R96T, D97E, T98P
B6: anti-CXCL13 A01 scFv-Fc fusion protein (Fc fusion, human)
VH: B2 VH
VL: B2 VL with S91A, Y93T, R95L, R96F
B7: anti-CXCL13 H06 scFv-Fc fusion protein (Fc fusion, human)
VH: B2 VH
VL: B2 VL with S91A, Y93V, T94V, R95V, R96T
B8: anti-CXCL13 C04 scFv-Fc fusion protein (Fc fusion, human)
VH: B2 VH
VL: B2 VL with Y93A, T94G, R95I, R96I, D97S, T98V

These binders were tested against IT1-Fc-3B4 scFv-Fc-scFv bispecific molecule (human) (assay: SPR).

For B1, the Kd was 0.8 nM.

These binders were tested against IT1-Fc-A1 scFv-Fc-scFv bispecific molecule (human) (assay: SPR).

For B1, the Kd was 0.01 nM.

The binders below were run against IT1-Fc-E10 scFv-Fc-scFv bispecific molecule (human) (assay: SPR).

B1 showed a Kd of 0.067 nM.

Each binder was assayed against human CXCL13 (Homo sapiens, UniProt O43927) (assay: SPR).

First: B2
Second: B3
The Kd of the first is 19-fold higher: 0.371 nM for the first, 0.0199 nM for the second. The second binds more tightly here.

First: B4
Second: B5
The Kd of the first is 1.6-fold higher: 0.0454 nM for the first, 0.0279 nM for the second. The second binds more tightly here.

B6 and B7 are within 1.5-fold of each other in Kd: 0.0298 nM for the first, 0.0376 nM for the second.

Binder B8 has a Kd of 0.046 nM.

Going from B2 to B3, the koff falls from 0.0121 s⁻¹ to 0.0002 s⁻¹ (60-fold).

Going from B4 to B5, the koff falls from 0.0005 s⁻¹ to 0.0002 s⁻¹ (2.5-fold).

B6 and B7 are the same in koff: 0.0003 s⁻¹ for the first, 0.0003 s⁻¹ for the second.

B8 gave a koff of 0.0003 s⁻¹.

Going from B2 to B3, the kon falls from 3.24e+07 M⁻¹ s⁻¹ to 8.53e+06 M⁻¹ s⁻¹ (3.8-fold).

B4 and B5 are within 1.5-fold of each other in kon: 9.81e+06 M⁻¹ s⁻¹ for the first, 8.03e+06 M⁻¹ s⁻¹ for the second.

B6 and B7 are within 1.5-fold of each other in kon: 9.28e+06 M⁻¹ s⁻¹ for the first, 7.54e+06 M⁻¹ s⁻¹ for the second.

B8 was tested, and the kon was 6.22e+06 M⁻¹ s⁻¹.
